Assay results as given in US7329737 (DYAX, dated 2008).

Columns and labels:
[1] = target: T1, hK1 (human tissue kallikrein 1), recombinant (human, UniProt P06870 25-262); test: cell-based or functional assay
[2] = target: T1, hK1 (human tissue kallikrein 1), …; test: SPR
[3] = target: T1, hK1 (human tissue kallikrein 1), …; test: SPR, biotinylated hK1 on streptavidin chip; Fab 50 nM after DX-2300 50 nM (competitor DX-2300)
From the text: Epitope grouping by SPR. Biotinylated hK1 was captured on a streptavidin coated chip to a final ligand density of 88 RU. […] The signal at the end of the injection of the Fab alone is R2.

Row | Binder | IC50 (nM), inhibition of hK1 hydrolysis of Pro-Phe-Arg-AMC [1] [nM] | Kd [2] [nM] | koff [2] [s⁻¹] | kon [2] [M⁻¹ s⁻¹] | Fab Signal following DX-2300 (R1) [3] | IC50 (nM), inhibition of hK1 enzyme activity [1] [nM]
1 | M0133-E02 (Fab, V domains shown) VH: EVQLLESGGGLVQPGGSLRLSCAASGFTFSWYTMTWVRQAPGKGLEWVSSIYPSGGHTSYADSVKGRFTISRDNSKNTLYLQMNSLRAEDTAVYYCAKDTRVGPWLVRAPLDYWGQGTLVTVSS VL: not shown | 2.4 | 6.42 | 0.00146 | 227000 |  | 
2 | M0136-E10 (Fab, V domains shown) VH: EVQLLESGGGLVQPGGSLRLSCAASGFTFSPYNMAWVRQAPGKGLEWVSSIWPSGGRTRYADSVKGRFTISRDNSKNTLYLQMNSLRAEDTAVYYCAKGVRSSGLLERGRVYDAFDIWGQGTMVTVSS VL: DIQMTQSPGTLSLSPGERATLSCRASQSVTTFLAWYQRKPGQAPRLLIYGASSRAADIPDRFSGSGSGTDFTLTISRLEPEDLAVYYCQQYRFSPPTFGPGTTVDIRR |  | 9.66 | 0.00106 | 110000 |  | 22
3 | M0139-A09 (Fab, V domains shown) VH: EVQLLESGGGLVQPGGSLRLSCAASGFTFSWYFMVWVRQAPGKGLEWVSGIGPSGGLTTYADSVKGRFTISRDNSKNTLYLQMNSLRAEDTAVYYCARSDWLNYWGQGTLVTVSS VL: DIVMTQTPPSLPVNPGEPASISCRSSQSLVYSDGNTYLNWFQQRPGQSPRRLIYKVSNRDSGVPDRFSGSGSGTDFTLKISRVEAEDVGVYYCMQGTHWQRLTFGGGTKVEIKR |  | 5.48 | 0.00106 | 194000 | 25.7 | 34
4 | M0136-A07 (Fab, V domains shown, No HC-136-A07 entry is printed) VH: EVQLLESGGGLVQPGGSLRLSCAASGFTFSWYHMYWVRQAPGKGLEWVSYIRPSGGNTNYADSVKGRFTISRDNSKNTLYLQMNSLRAEDTAMYYCARDRRGYSSSKGYYYYGMDVWGQGTTVTVSS VL: not shown |  | 7.98 | 0.00258 | 323000 | 5 | 25
5 | M0106-G12 (Fab, V domains shown) VH: EVQLLESGGGLVQPGGSLRLSCAASGFTFSWYRMHWVRQAPGKGLEWVSSIWPSGGKTHYADSVKGRFTISRDNSKNTLYLQMNSLRAEDTAVYYCARALQYGSGSYFYAPKSYYYYGMDVWGQGTTVTVSS VL: DIQMTQSPSFVSASIGDRVTITCRASQSIGTLLNWYQHKPGTVPSLLIYGNLRGGVPARFSGSGSGTDFTLTISSLQPEDFATYYCQHDTFGGGTKVDIKR | 5.1 |  |  |  |  | 
6 | M0139-F04 (Fab, V domains shown) VH: EVQLLESGGGLVQPGGSLRLSCAASGFTFSRYYMEWVRQAPGKGLEWVSSISSSGGSTEYADSVKGRFTISRDNSKNTLYLQMNSLRAEDTAVYYCAKDITPGGGSGFRLPKNYYYYGMDVWGQGTTVTVSS VL: DIQMTQSPSSLSASVGDRVTITCRASQAISTNLNWYQQKPGKAPKLLIYAASSLQSGVPSRFIGSGSGTDFTLTISSLHPEDFATYHCQQTFSPPHTFGQGTKVEIQR | 20.7 | 7.27 | 0.00134 | 184000 |  | 
7 | M0102-G12 (Fab, V domains shown) VH: EVQLLESGGGLVQPGGSLRLSCAASGFTFSKYKMVWVRQAPGKGLEWVSSIYPSGGITAYADSVKGRFTISRDNSKNTLYLQMNSLRAEDTAMYYCAKDITPGGGSGFRLPKNYYYYGMDVWGQGTTVTVSS VL: AQSELTQPPSASGTPGQRVTISCSGTLSNIGTNIVSWFQQLPGTAPKLLIYNDHRRPSGVPDRFSGSKSATSASLAISGLQSEDEADYYCAAWDDSLNGVVFGGGTKLTVLS | 3.3 | 5.28 | 0.000442 | 83700 |  | 
8 | M0138-C09 (Fab, V domains shown) VH: EVQLLESGGGLVQPGGSLRLSCAASGFTFSPYRMSWVRQAPGKGLEWVSVISPSGGITEYADSVKGRFTISRDNSKNTLYLQMNSLRAEDTAVYYCAKHERGSGYYVTPPAGAFDIWGQGTMVTVSS VL: AQSELTQPASVAGSPGQSITISCTGTSSDVGLYNFVSWYQQHPGKAPKLMIYDVSRRPSGVSNRFSASKSGTRASLTVSGLQAEDEADYYCSSYAGSNNYVFGTGTKVTVLG | 10.9 | 8.78 | 0.00153 | 175000 |  | 
9 | M0097-G01 (Fab, V domains shown) VH: EVQLLESGGGLVQPGGSLRLSCAASGFTFSPYYMQWVRQAPGKGLEWVSGISSSGGSTQYADSVKGRFTISRDNSKNTLYLQMNSLRAEDTAVYYCARSQRRTYYPNFGDAFDIWGQGTMVTVSS VL: DIQMTQSPSSLSASVGDRVTITCRASQGIGNYLVWYQHKPGNVPRVLIYAASTLQSGVPSRFRGSGSGTDFTLTISGLQPEDVATYYCQKYDGAPFTFGPGTKVDLKR | 7.2 | 4.8 | 0.000832 | 173000 |  | 
10 | M0117-F04 (Fab, V domains shown) VH: EVQLLESGGGLVQPGGSLRLSCAASGFTFSMYVMNWVRQAPGKGLEWVSRIGSSGGGTLYADSVKGRFTISRDNSKNTLYLQMNSLRAEDTAVYYCARVSVYRIRNYYYYAMDVWGQGTTVTVSS VL: DIQMTQSPSSLSASVGDRVTITCRASQGIGNYLAWYQQKPGKAPNLLIYKTSNLQSGVPSRFRGSGSGTEFTLTITSVQPDDFATYFCQRYDSYSQYIFGQGTKLETKR | 5.2 | 6.61 | 0.00197 | 298000 | 6.7 | 

Second part, the binder after the results:

Row | IC50 (nM), inhibition of hK1 hydrolysis of Pro-Phe-Arg-AMC [1] [nM] | Kd [2] [nM] | koff [2] [s⁻¹] | kon [2] [M⁻¹ s⁻¹] | Fab Signal following DX-2300 (R1) [3] | IC50 (nM), inhibition of hK1 enzyme activity [1] [nM] | Binder
11 | 2.9 | 1.87 | 0.000233 | 125000 |  |  | M0139-E12 (Fab, V domains shown) VH: EVQLLESGGGLVQPGGSLRLSCAASGFTFSWYSMNWVRQAPGKGLEWVSSIGPSGGGTKYADSVKGRFTISRDNSKNTLYLQMNSLRAEDTAVYYCASRGQRKQWLPPNGAFDIWGQGTMVTVSS VL: DIQMTQSPSSVSASVGDRVTMTCRASRGISNWLAWYQQKPGKAPELLIHSASTLHAGVPSRFSGSGSGTDFTLTISSLQPGDFATYYCQEGNSFPYTFGQGTNLQIKR
12 | 1.2 | 0.999 | 0.000166 | 167000 | 4.8 |  | M0114-G06 (Fab, V domains shown) VH: EVQLLESGGGLVQPGGSLRLSCAASGFTFSYYEMEWVRQAPGKGLEWVSSIRPSGGRTVYADSVKGRFTISRDNSKNTLYLQMNSLRAEDTAVYYCAKGRSNYYGSGSYSPKYFQHWGQGTLVTVSS VL: DIQMTQSPSSLSASVGDRVTITCRASQGISSWLAWYQQRPERAPKSLIYAASSLERGVPSRFRGSGSGTDFTLTISSLQPEDFGTYYCQQYHNFPLTFGGGTRVEINR
13 |  | 6.19 | 0.00161 | 260000 |  | 28 | M0138-G11 (Fab, V domains shown) VH: EVQLLESGGGLVQPGGSLRLSCAASGFTFSWYTMTWVRQAPGKGLEWVSSIYPSGGHTSYADSVKGRFTISRDNSKNTFYLQMNSLRAEDTAVYYCAKDTRVGPWLVRAPLDYWGQGTLVTVSS VL: not shown
14 |  | 5.81 | 0.000781 | 134000 | 3 | > 120 | M0112-D07 (Fab, V domains shown) VH: EVQLLESGGGLVQPGGSLRLSCAASGFTFSFYSMSWVRQAPGKGLEWVSRIRPSGGRTDYADSVKGRFTISRDNSKNTLYLQMNSLRAEDTAVYYCARDRLYYYGSGSYYYGAFDIWGQGTMVTVSS VL: DIQMTQSPSSLSASVGDRVTITCRASQTIRTYLNWYQQKPGIAPKFLIYDASNLQTGVPSRFSGSGSGTHFTLTISSLQPEDFGTYYCQQSYGGPPTFGRGTKIEIKR
15 | 10.1 | 2.69 | 0.000138 | 51300 | 2.3 |  | M0134-D07 (Fab, V domains shown) VH: EVQLLESGGGLVQPGGSLRLSCAASGFTFSRYFMIWVRQAPGKGLEWVSSIVPSGGPTRYADSVKGRFTISRDNSKNTLYLQMNSLRAEDTAVYYCARRGPVYYYDSSGSHSAFDIWGQGTMVTVSS VL: DIQMTQSPSSLSASVGDRVTITCRASQGIRNDLGWYQQKPGKAPKLLIYAASSLQSGVPSRFSGSGSGTDFTLTISSLQPEDFATYYCLQDYNYPRTFGQGTKVEIKR
16 | 2.5 | 1.91 | 0.00159 | 836000 | 8.5 |  | M0098-E09 (Fab, V domains shown) VH: EVQLLESGGGLVQPGGSLRLSCAASGFTFSRYGMQWVRQAPGKGLEWVSYIYPSGGGTVYADSVKGRFTISRDNSKNTLYLQMNSLRAEDTAVYYCARRVAVAGSWYYYYYGMDVWGQGTTVTVSS VL: DIQMTQSPSSVSASVGDSVTISCWTIYDISSWLAWYQQRPGQAPKLLIYAASRLATGVPSRFRGSGSGTDFTLTITNLQPEDVATYYCQQTKDFPLTFGGGTRVDLKR
17 | 4.5 | 3.24 | 0.00741 | 2.29e+06 |  |  | M0102-H11 (Fab, V domains shown) VH: EVQLLESGGGLVQPGGSLRLSCAASGFTFSKYPMTWVRQAPGKGLEWVSSISSSGGKTQYADSVKGRFTISRDNSKNTLYLQMNSLRAEDTAVYYCTRGGSSTLYFMDVWGQGTTVTVSS VL: DIQMTQSPATLSLSPGERATLSCRASQSVSSYLAWYQQKPGQAPRLLIYGASSRATGIPDRFSGSGSGTDFTLTISSLEPEDFAVYYCQQRGGWPLTFGGGTKVEIRR
